Laboratory results taken from US20220289795, “EFFICIENT METHOD FOR PREPARING PPR PROTEIN AND USE OF THE SAME” (EditForce, Inc., published 2022).
Where a chain is given by its changes, count along the chain named.

Assays:
Assay in all cases: ELONA; RPB-ELISA
[1] = biological target: T1, NL_v2_PPR11 (Artificial Sequence); settings: tags: N-term luciferase, C-term 6xHis; label: 5'-biotin
T1 chain: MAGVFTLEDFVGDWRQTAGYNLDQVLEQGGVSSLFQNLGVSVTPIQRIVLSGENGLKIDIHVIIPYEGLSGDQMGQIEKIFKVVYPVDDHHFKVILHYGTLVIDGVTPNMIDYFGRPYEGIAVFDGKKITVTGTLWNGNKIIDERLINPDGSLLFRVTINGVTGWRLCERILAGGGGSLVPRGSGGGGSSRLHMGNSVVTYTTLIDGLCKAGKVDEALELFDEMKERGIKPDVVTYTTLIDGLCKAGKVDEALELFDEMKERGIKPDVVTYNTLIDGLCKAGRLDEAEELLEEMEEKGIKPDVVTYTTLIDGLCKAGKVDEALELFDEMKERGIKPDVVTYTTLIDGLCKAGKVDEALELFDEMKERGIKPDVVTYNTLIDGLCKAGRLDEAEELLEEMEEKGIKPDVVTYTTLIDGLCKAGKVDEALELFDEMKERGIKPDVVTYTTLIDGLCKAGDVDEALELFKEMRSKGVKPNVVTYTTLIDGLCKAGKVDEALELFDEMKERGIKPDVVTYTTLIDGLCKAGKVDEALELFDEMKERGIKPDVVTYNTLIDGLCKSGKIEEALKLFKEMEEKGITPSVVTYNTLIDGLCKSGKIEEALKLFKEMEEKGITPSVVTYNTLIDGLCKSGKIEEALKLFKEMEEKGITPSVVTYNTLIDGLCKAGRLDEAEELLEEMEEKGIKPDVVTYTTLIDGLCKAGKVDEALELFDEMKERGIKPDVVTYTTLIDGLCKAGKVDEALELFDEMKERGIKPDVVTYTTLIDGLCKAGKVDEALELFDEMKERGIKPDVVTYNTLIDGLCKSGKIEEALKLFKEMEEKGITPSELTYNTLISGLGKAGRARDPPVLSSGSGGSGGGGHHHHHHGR

[2] = biological target: T2, v3.1_PPR11 (Artificial Sequence); settings: tags: luciferase fusion; label: 5'-biotin
T2 chain: T1 chain with D458K

[3] = biological target: T3, v3.1_PPR12 (Artificial Sequence); settings: tags: luciferase fusion; label: 5'-biotin
T3 chain: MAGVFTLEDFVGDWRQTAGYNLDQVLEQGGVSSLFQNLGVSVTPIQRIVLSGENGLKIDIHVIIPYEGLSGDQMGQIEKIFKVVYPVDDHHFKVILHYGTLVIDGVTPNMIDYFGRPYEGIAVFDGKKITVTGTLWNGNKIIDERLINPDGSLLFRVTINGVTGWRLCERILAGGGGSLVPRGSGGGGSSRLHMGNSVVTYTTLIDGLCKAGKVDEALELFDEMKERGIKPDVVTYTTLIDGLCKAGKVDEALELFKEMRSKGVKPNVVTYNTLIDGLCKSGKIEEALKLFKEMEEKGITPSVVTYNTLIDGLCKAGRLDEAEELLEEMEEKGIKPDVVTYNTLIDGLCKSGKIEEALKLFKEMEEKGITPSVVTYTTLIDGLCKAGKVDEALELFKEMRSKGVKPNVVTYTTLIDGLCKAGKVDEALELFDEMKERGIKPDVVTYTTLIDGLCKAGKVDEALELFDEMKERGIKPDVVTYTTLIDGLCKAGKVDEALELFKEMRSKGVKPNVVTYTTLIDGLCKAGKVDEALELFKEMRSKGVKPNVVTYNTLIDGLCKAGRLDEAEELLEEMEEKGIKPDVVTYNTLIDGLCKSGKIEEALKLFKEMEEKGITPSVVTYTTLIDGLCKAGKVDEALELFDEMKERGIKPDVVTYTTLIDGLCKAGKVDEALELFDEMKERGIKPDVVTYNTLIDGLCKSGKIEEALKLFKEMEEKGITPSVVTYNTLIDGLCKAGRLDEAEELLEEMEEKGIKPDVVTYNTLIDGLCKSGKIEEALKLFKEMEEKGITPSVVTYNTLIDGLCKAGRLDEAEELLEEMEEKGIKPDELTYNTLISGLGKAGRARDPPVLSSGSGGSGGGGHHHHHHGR

[4] = biological target: T4, NL_v2_PPR12 (Artificial Sequence); settings: tags: N-term luciferase, C-term 6xHis; label: 5'-biotin
T4 chain: T3 chain with K248D, K388D, K493D, K528D

[5] = biological target: T5, NL_v2_PPR10 (Artificial Sequence); settings: tags: N-term luciferase, C-term 6xHis; label: 5'-biotin
T5 chain: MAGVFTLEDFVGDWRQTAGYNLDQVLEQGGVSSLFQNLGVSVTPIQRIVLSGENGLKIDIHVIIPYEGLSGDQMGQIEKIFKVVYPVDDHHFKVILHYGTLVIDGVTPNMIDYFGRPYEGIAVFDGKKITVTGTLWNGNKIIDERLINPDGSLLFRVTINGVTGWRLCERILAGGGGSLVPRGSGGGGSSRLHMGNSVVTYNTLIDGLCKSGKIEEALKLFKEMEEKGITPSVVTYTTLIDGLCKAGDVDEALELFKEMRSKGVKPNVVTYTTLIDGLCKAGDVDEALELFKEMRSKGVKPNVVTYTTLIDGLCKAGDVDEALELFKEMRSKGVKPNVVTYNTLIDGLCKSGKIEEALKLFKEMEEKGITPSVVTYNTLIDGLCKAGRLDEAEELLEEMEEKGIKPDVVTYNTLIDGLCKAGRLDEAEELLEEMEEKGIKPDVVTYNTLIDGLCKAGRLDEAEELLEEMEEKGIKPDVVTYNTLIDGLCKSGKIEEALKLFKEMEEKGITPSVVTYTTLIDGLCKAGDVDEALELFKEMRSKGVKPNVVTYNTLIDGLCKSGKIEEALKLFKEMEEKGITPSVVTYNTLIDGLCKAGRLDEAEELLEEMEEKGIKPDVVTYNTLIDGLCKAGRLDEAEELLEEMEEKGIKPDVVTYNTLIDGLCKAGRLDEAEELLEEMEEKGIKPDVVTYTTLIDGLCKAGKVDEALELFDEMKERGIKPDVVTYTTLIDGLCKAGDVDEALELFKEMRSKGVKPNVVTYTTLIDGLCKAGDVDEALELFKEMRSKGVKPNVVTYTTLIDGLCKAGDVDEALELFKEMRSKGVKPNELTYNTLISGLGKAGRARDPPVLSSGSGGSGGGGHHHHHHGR

[6] = biological target: T6, v3.1_PPR10 (Artificial Sequence); settings: tags: luciferase fusion; label: 5'-biotin
T6 chain: T5 chain with D248K, D283K, D318K, D528K, D738K, D773K, D808K

GACAUGCGGUGGUGAGGCCCUGGGCGACUG (ssRNA) [RNA_11]
binding signal [1]: 1.2e+07 luminescence | binding signal [2]: 2.6e+07 luminescence

GACAUGCGACUCAGGAAUCGGCUCUGACUG (ssRNA) [RNA_12]
binding signal [3]: 1.8e+07 luminescence | binding signal [4]: 3.8e+07 luminescence

GACAUGCCAAACUUUCACUUUGAAAGACUG (ssRNA) [RNA_10]
binding signal [5]: 7.8e+06 luminescence | binding signal [6]: 5.8e+07 luminescence
